Results published in patent publication US20210388105A1 (ELPISCIENCE SUZHOU BIOPHARMA, published 2021).

T1: KW27-7 (human CD39 mutant, C-terminal EGFP) (human, UniProt P49961 1-510)
T1 construct: expressed on HEK293F cells; K188R and residues 190-206 substituted by KTPGGS; not shown: C-terminal EGFP fusion (vector pCMV3-GFPSpark)
T1 chain: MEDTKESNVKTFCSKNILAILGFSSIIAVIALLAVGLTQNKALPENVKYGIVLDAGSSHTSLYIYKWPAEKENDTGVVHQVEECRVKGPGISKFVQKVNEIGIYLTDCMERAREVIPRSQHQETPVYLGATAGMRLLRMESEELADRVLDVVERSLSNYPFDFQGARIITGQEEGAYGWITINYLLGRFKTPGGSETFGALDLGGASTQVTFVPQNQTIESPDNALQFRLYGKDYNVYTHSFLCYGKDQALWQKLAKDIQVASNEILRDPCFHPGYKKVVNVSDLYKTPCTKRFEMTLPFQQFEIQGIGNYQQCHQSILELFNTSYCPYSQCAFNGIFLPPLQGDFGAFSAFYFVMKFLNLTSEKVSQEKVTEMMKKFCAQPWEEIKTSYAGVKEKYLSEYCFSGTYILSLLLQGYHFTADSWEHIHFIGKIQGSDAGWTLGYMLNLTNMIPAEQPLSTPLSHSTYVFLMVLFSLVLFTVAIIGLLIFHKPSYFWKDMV

T2: KW27-17 (human CD39 mutant, C-terminal EGFP) (human, UniProt P49961 1-510)
T2 construct: expressed on HEK293F cells; not shown: C-terminal EGFP fusion (vector pCMV3-GFPSpark)
T2 chain: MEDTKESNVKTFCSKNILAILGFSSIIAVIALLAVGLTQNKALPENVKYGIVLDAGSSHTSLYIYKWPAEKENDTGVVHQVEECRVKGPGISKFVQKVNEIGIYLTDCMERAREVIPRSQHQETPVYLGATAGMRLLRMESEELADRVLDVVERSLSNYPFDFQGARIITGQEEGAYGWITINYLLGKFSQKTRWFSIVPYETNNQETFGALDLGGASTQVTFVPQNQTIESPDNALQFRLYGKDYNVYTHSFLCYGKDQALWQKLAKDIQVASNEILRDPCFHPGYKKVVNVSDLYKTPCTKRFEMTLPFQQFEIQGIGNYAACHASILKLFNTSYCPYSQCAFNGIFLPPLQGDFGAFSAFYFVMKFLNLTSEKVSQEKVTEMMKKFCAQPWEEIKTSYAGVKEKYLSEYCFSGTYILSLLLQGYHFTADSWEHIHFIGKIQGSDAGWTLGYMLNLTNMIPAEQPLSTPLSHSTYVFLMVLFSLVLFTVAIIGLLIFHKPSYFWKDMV

T3: KW27-14 (human CD39 mutant, C-terminal EGFP) (human, UniProt P49961 1-510)
T3 construct: expressed on HEK293F cells; not shown: C-terminal EGFP fusion (vector pCMV3-GFPSpark)
T3 chain: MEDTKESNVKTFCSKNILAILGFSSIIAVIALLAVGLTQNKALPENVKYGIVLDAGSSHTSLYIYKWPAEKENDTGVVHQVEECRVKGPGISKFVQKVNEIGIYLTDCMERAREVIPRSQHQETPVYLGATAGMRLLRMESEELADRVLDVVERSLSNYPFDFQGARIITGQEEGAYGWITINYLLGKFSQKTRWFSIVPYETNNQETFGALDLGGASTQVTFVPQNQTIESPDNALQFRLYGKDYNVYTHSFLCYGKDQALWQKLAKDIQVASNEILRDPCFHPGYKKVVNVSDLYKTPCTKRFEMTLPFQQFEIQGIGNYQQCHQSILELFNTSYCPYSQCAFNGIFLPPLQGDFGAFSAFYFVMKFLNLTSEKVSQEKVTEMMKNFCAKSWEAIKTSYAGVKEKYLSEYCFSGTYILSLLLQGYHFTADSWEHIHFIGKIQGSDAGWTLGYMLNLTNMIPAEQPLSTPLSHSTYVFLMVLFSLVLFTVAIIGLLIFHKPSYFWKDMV

T4: KW27-18 (human CD39 mutant, C-terminal EGFP) (human, UniProt P49961 1-510)
T4 construct: expressed on HEK293F cells; not shown: C-terminal EGFP fusion (vector pCMV3-GFPSpark)
T4 chain: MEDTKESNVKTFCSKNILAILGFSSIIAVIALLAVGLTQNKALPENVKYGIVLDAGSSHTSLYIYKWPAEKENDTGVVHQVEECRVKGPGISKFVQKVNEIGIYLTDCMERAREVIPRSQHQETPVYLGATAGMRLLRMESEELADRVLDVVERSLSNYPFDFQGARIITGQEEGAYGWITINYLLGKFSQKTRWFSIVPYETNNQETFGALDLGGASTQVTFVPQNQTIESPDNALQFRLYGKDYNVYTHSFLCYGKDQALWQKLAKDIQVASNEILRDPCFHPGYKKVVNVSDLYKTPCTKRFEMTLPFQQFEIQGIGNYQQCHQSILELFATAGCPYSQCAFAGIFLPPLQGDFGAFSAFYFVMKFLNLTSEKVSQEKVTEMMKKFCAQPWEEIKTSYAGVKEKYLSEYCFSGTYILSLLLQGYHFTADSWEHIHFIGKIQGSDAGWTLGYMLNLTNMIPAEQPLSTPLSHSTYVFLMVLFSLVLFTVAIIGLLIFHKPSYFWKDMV


Experiments:
Experiment in all cases: FACS, mutant-EGFP on HEK293F cells
[1] = target: T1, KW27-7 (human CD39 mutant, C-terminal …)
Procedure: (§1) Briefly, the human CD39 mutants were generated by gene synthesis and then cloned into an expression vector pCMV3-GFPSpark. The vectors containing the validated mutated sequences were prepared and transfected into HEK293F cells. Three days post transfection, the cells were collected to testing EGFP for transgene expression. A range of dosages of antibodies (start from 100 nM, 3-folds dilution, 11 points) were tested on the 20 generated mutants and stained by AlexFluor647 labelled anti-hIgG by FACS. Antibody binding was descripted as relative binding which is derived from AlexFluor647 intensity divided by GFP intensity.

[2] = target: T2, KW27-17 (human CD39 mutant, C-terminal …)
Procedure: as §1

[3] = target: T3, KW27-14 (human CD39 mutant, C-terminal …)
Procedure: as §1

[4] = target: T4, KW27-18 (human CD39 mutant, C-terminal …)
Procedure: as §1

Binder | binding result [1] | binding result [2] | binding result [3] | binding result [4]
Antibody T895 (antibody, V domains shown, also called 31895) VH: EVQLQQSGPELVKPGASVKMSCKASGYTFTDYNMHWVKQSHGRTLEWIGYIVPLNGGSTFNQKFKGRATLTVNTSSRTAYMELRSLTSEDSAAYYCARGGTRFAYWGQGTLVTVSA VL: not shown | binds | binds | binds | binds
hu23.H5L5 (antibody, V domains shown, humanized c23) VH: QVQLVQSGAEVKKPGASVKVSCKASGYNLKDTFLHWVRQAPGQGLEWMGRIDPANGNIKYDPKFQGRVTITADTSANTAYMELISLRSEDTAVYYCANSPYYYGSGYRIFDVWGQGTTVTVSS VL: QIVLTQSPATLSLSPGERATLSCSAFSSVNYMHWYQQKPGQAPRLLIYTTSNLASGIPTRFSGSGSGTSYTLTISSLEPEDFAVYYCQQRSTYPFTFGQGTKLEIK | binds | binds | binds | binds
Antibody 9-8B (antibody, V domains shown) VH: QIQLVQSGPELKKPGETVKISCKASGYTFTHYGMNWVKQAPGKGLKWMGWINTYTGELTYADDFKGRFAFSLETSASTAYLQINNLKNEDTATYFCARRAYYRYDYVMDYWGQGTSVTVSS VL: DIVMTQSQKFMSTSVGDRVSVTCKASHNVGTNVAWYQQKPGQSPKALIYSASYRYSGVPGRFTGSGSGTDFTLTISNVQSEDLAEYFCHQYNNYPYTFGGGTKLEIK | binds | binds | binds | binds

The remaining lines, values ahead:

binding result [1] | binding result [2] | binding result [3] | binding result [4] | Binder
binds | binds | binds | binds | c35 (antibody, V domains shown, its making is not described; also called chimeric antibody c35) VH: EVRLQQSGAELVKPGASVKLSCTASGFNIEDTYVHWMKQRPEQGLEWIGRIDPAIDNSKYDPKFQGKATITAVSSSNTAYLQLSSLTSEDTAVYYCALYDGYNVYAMDYWGQGTSVTVSS VL: DIVMTQAAFSNPVTLGTSASISCRSSKNLLHSNGITYLYWYLQRPGQSPQLLIYRASTLASGVPNRFSGSESGTDFTLRISRVEAEDVGVYYCAQLLELPHTFGGGTKLEIK
binds | binds | binds | binds | c34 (antibody, V domains shown, its making is not described; also called chimeric antibody c34) VH: EIQVQQSGPELVKPGASVKVSCKASGYSFTDYNMYWVKQSHGKSLEWIGFIDPYNGYTSYNQKFKGKATLTIDKSSSTAFMHLNSLTSEDSAVYYCAIYGYDDAYYFDYWGQGTTLTVSS VL: QIVLTQSPAIMSASPGEKVTITCSATSSVSYMHWFRQKPGTSPKLWIYSTSNLASGVPARFSGSGSGTSYSLTISRMAAEDAATYYCQQRITYPFTFGSGTKLEIT
